# Experimental data: PMC10746227
# B1: WalR-SmBIT (native WalR) [S. aureus] / WalK-LgBIT (native WalK) [S. aureus] (parent)
# chain 1: MARKVVVVDDEKPIADILEFNLKKEGYDVYCAYDGNDAVDLIYEEEPDIVLLDIMLPGRDGMEVCREVRKKYEMPIIMLTAKDSEIDKVLGLELGADDYVTKPFSTRELIARVKANLRRHYSQPAQDTGNVTNEITIKDIVIYPDAYSIKKRGEDIELTHREFELFHYLSKHMGQVMTREHLLQTVWGYDYFGDVRTVDVTIRRLREKIEDDPSHPEYIVTRRGVGYFLQQHE
# chain 2: MKWLKQLQSLHTKLVIVYVLLIIIGMQIIGLYFTNNLEKELLDNFKKNITQYAKQLEISIEKVYDEKGSVNAQKDIQNLLSEYANRQEIGEIRFIDKDQIIIATTKQSNRSLINQKANDSSVQKALSLGQSNDHLILKDYGGGKDRVWVYNIPVKVDKKVIGNIYIESKINDVYNQLNNINQIFIVGTAISLLITVILGFFIARTITKPITDMRNQTVEMSRGNYTQRVKIYGNDEIGELALAFNNLSKRVQEAQANTESEKRRLDSVITHMSDGIIATDRRGRIRIVNDMALKMLGMAKEDIIGYYMLSVLSLEDEFKLEEIQENNDSFLLDLNEEEGLIARVNFSTIVQETGFVTGYIAVLHDVTEQQQVERERREFVANVSHELRTPLTSMNSYIEALEEGAWKDEELAPQFLSVTREETERMIRLVNDLLQLSKMDNESDQINKEIIDFNMFINKIINRHEMSAKDTTFIRDIPKKTIFTEFDPDKMTQVFDNVITNAMKYSRGDKRVEFHVKQNPLYNRMTIRIKDNGIGIPINKVDKIFDRFYRVDKARTRKMGGTGLGLAISKEIVEAHNGRIWANSVEGQGTSIFITLPCEVIEDGDWDE
# Variants of: B1
# Assay: split luciferase (SmBIT/LgBIT) interaction assay in S. aureus
# Settings: with WalK-LgBIT (native WalK) [S. aureus]; maximum of the RLU curve, mutant peak at about 140 min, Wt peak at about 125 min; growth in LB in NRS384 Wt; sub-panel labelled D53A; parent: 8.5e+03; read off a plot
row,Variant,response [RLU]
1,chain 1 D53A,17000

# Same assay, conditions: with WalK-LgBIT (native WalK) [S. aureus]; maximum of the RLU curve, mutant peak at about 140 min, Wt peak at about 125 min; growth in LB in NRS384 Wt; sub-panel labelled D53E; parent: 8e+03; read off a plot
row,Variant,response [RLU]
1,chain 1 D53E,150000

# Same assay, conditions: with WalK-LgBIT (native WalK) [S. aureus]; maximum of the RLU curve, mutant peak at about 170 min, Wt peak at about 120 min; growth in LB in NRS384 Wt; sub-panel labelled D53A/T101A; parent: 8e+03; read off a plot
row,Variant,response [RLU]
1,chain 1 D53A T101A,8000

# Same assay, conditions: with WalR-SmBIT (native WalR) [S. aureus]; maximum of the RLU curve, mutant peak at about 110 min, Wt peak at about 130 min; growth in LB in NRS384 Wt; sub-panel labelled Y32C; parent: 1.8e+04; read off a plot
row,Variant,response [RLU]
1,chain 2 Y32C,55000

# Same assay, conditions: with WalR-SmBIT (native WalR) [S. aureus]; maximum of the RLU curve, mutant peak at about 125 min, Wt peak at about 120 min; growth in LB in NRS384 Wt; sub-panel labelled T389A; parent: 8e+03; read off a plot
row,Variant,response [RLU]
1,chain 2 T389A,60000

# Same assay, conditions: with WalR-SmBIT (native WalR) [S. aureus]; maximum of the RLU curve, mutant peak at about 165 min, Wt peak at about 120 min; growth in LB in NRS384 Wt; sub-panel labelled G223D; parent: 8e+03; read off a plot
row,Variant,response [RLU]
1,chain 2 G223D,19000

# Same assay, conditions: with WalR-SmBIT (native WalR) [S. aureus]; maximum of the RLU curve, mutant peak at about 170 min, Wt peak at about 120 min; growth in LB in NRS384 Wt; sub-panel labelled H385A; parent: 8e+03; read off a plot
row,Variant,response [RLU]
1,chain 2 H385A,20000
